Measured values: the DeepSol protein solubility set

Assay: soluble on expression in E. coli; label from the status in PepcDB or PDB records

| Sequence | soluble on expression in E. coli |
| --- | --- |
| MKKELLTRFMEKRIVELKKEQRNGTAHVYQSTLNRLKNFMNGREITFSQLTPEWLALFEQKLLADQLKWNTISTYMRMLRSVYNQALERGVATYVPRLFNKVHTGIDCPVKRAVSPEVICRLMTDRKPLPGKLAFSRDLFVLLFLLRGMPFVDLAFLRRCDLQGNVITYHRRKTSRKLTVVVGKEAMEIIQKYMYAIPDSPYLFPIIQNPGKDEYGQYARMLRLQNYRLTQVANILGIRDRLSTYTARHTWATTALRQNYNSSLICDAMGHSSVKVTETYFQPYRDDEVNRMNSSLITYILSKKKRGTDKKIRS | not soluble |
| GPMELAHREYQAGDFEAAERHCMQLWRQEPDNTGVLLLLSSIHFQCRRLDRSAHFSTLAIKQNPLLAEAYSNLGNVYKERGQLQEAIEHYRHALRLKPDFIDGYINLAAALVAAGDMEGAVQAYVSALQYNPDLYCVRSDLGNLLKALGRLEEAKACYLKAIETQPNFAVAWSNLGCVFNAQGEIWLAIHHFEKAVTLDPNFLDAYINLGNVLKEARIFDRAVAAYLRALSLSPNHAVVHGNLACVYYEQGLIDLAIDTYRRAIELQPHFPDAYCNLANALKEKGSVAEAEDCYNTALRLCPTHADSLNNLANIKREQGNIEEAVRLYRKALEVFPEFAAAHSNLASVLQQQGKLQEALMHYKEAIRISPTFADAYSNMGNTLKEMQD | soluble |
| MADKKAPAAGWPVANGEYVVGNPESCVAVITLGSHGLDQAAIDAGAAISGPCHTENLGIEKVVANYISNPNIRFMVIAGSEVQGHITGQCIKALYENGIGDDGGIIGAKGAIPFMENVGKEPVGRLQTQVVECIDLIDVEDKGKIADAIKNCISKDPGAFEEDPMVIELEGGAAAAGDESTSIKPTSPEMALLEARMRIVSEKMNEAAMIAKFNSGYYNGK | not soluble |
| SLIYFFMVDAVELSRKYEGKIEIYPKVPITSYNDFALIYTPGVAEVSKAIYKDPDKSFELTSRWNTIAVVTDGTRVLGLGNIGPTAAMPVMEGKSLLFKYLGGVDAIPLPINVKSADEFTNVVKALETSFGGINLEDIESPKCFYILEKLQSMLNIPVWHDDQQGTAAAILAGLINAMILTNKDPKESKVVFYGAGASNIAAARILAKYGFKYENIVMIDSKGPLYADREDVDHLMLHHKWKYELAIKTNKWEAKEIKDAFSGADAVVAASTPGPNVIKKEWISLMNKEAIVFALANPVPEIWPQDAKEAGAKIVATGRSDFPNQVNNSLIFPAIFRGVLDSRAKAITDEMTIAASEALAKYARDRGINENYIIPRMDEWEAFYEEAAAVASKAVELGLARVKKSREEFREIAKERIIRARKIMNLVISTWSPEG | soluble |
| MSLKKDYGSQEDFTQVWNTTMKGLKCCGFTNYTDFEDSPYFKENSAFPPFCCNDNVTNTANETCTKQKAHDQKVEGCFNQLLYDIRTNAVTVGEGHHHHHH | soluble |
| MGSDKIHHHHHHMSSSGKVIVVGAGIVGLATAWHLQEHGFEVSVLDRDGVAAGSSWGNAGWLAPAKTIPLSEPGLWTYGPKELFNPVSPMHMPLRVDPKLWLFLAQFMAQAFQRKWDSTMADLTEIDKVALEAFDELSIGGVEGLTHEGPFVIGFEEERQSAGFRKEIDGVSRHGQKVEMSRLENPQELAPMLNEQIQVAYRLEGQRFIEPGPYVQSLADAVVKRGGVIRAGAEVVHVAKGDRPAVILADGSREEADKVVVATGAWLPGLTREYGVKTLVQAGRGYSFSVATDIPAKHSVYLPHHRMACTPYEGRFRIAGTMEFRGPDEPFQQGRVDAIVSQAKKVMRGIDFNDRQDEWVGSRPVTPDGRPLIGQTKAENIYVAGGHGMWGVVLGPATGKYLAELMATGNTNPIIKPFDPLR | not soluble |
| MERVSITERPDWREKAHEYGFNFHTMYGEPYWCEDAYYKLTLAQVEKLEEVTAELHQMCLKVVEKVIASDELMTKFRIPKHTWSFVRQSWLTHQPSLYSRLDLAWDGTGEPKLLENNADTPTSLYEAAFFQWIWLEDQLNAGNLPEGSDQFNSLQEKLIDRFVELREQYGFQLLHLTCCRDTVEDRGTIQYLQDCATEAEIATEFLYIDDIGLGEKGQFTDLQDQVISNLFKLYPWEFMLREMFSTKLEDAGVRWLEPAWKSIISNKALLPLLWEMFPNHPNLLPAYFAEDDHPQMEKYVVKPIFSREGANVSIIENGKTIEAAEGPYGEEGMIVQQFHPLPKFGDSYMLIGSWLVNDQPAGIGIREDRALITQDMSRFYPHIFVE | soluble |
| MANPFSKAWKYLMALFDSKIEENADPKVQIQQAIEDAQRQHQELSQQAAAVIGNQRQLEMQLNRRLAEIEKLQGNTRQAIQLADKARAEGNIQKATEYENAAEAFAAQLVTAEQGVEDTKQLHDQALQQADAAKKAVERNAMVLQQKVAERTKLLSQLEQAKMQEKVAESIQSMNSISNRDTPNLDQVREKIERRYANALGTAELAQNSVQGRMAEVEQAGIQLAGHSRLEQIRAEMSGGQLGAGNSATQQSIESAQQATPSAADDAVARKMRELRGEA | not soluble |
| MSLKAKYVWVALLALTFFGCDDNTGTIGWDMLPDSDQNINGRYTTYELTTNSDLSGPVFAKTSVGYVGKFTDKEFGEYEASFLAQLNSPDGISFPSVYDPETNPKGVMAGDSIHTAELILYYKSYFGDSINPCRMTVYELDENLTQNYYTDIDPLKYYNPNNLLARKAYTAVDQSLSDSIRNSDDFYPNVRLTSEEITKLGKRIYRLNRDHPEYFKTSEAFINNVFKGIYAKNDYGNGTILYVDQINLNVVIRCHEKDSLGNNLKKKNGADSLYYTTRTFATTKEVIQANKFVNSEKLNEIAKKTDCTYLKSPAGIFTQATLPINKIYEELSHDTINAVKLTFNSYNQPDNGKFSMKAPTYVLLLREKERQSFFEENKLTDNITSYLAVHNAIISNKPTTNQYVFTNLTRLINACVNEKQEAKKKAGDSWNEAAWEAANPDWNKVVLIPVLVQYDSSSNKNMISIQHDLQPGYVKLEGGPDGTKLKLEVTYTNFNGKEGHHHHHH | not soluble |
| MLRISELKLPLGHPPDAMEPAILARLGLSATDLVSFAVARRANDARKKSAIQMVYSVDVVLRDEAAVLRRFEGDHHLRVTPDTGYHFVAKAPEGFDGPRPVVIGAGPCGLFAGLILAQMGLKPIIVDRGKVVRERTKDTWGLWRRSELNPESNVQFGEGGAGTFSDGKLYSQIKDPRFLGRKVLTEFVKAGAPEEILTEAHPHIGTFRLVHMVENMRALIESLGGEYRWQHRVEDFDIEVGEDGVRRVTGLHIAGQGHLPARHVVMALGHSSRDTFQVLYDRGVHIEAKPFSIGVRIEHPQSWIDRARFGDCAGHKDLGAAAYAISHHAKNGRTVYSFCMCPGGTVVAATSEPGRVVTNGMSQYSRNERNANSGFVVDIDPERDYPGHPLAGVDFQRKWESLAFQAGGGTYQAPGQLVGDFLAGRPSTVFGAVTPSYKPGVHLTDLAQCLPDFAIEAMREALPIFGRQIPGYDHPDVVLTGVETRTSSPVRITRGKDFQSLNTAGLYPAGEGAGYAGGILSAAVDGIKVAEAVAKQYVAEGLISACLEHHHHHH | soluble |
| MHHHHHHSSGRENLYFQGPKCIQCGQYLDDPDLKYGQHPPDAVDEPQMLTNEKLSIFDANESGFESYEALPQHKLTCFSVYCKHGHLCPIDTGLIEKNIELFFSGSAKPIYDDDPSLEGGVNGKNLGPINEWWITGFDGGEKALIGFSTSFAEYILMDPSPEYAPIFGLMQEKIYISKIVVEFLQSNSDSTYEDLINKIETTVPPSGLNLNRFTEDSLLRHAQFVVEQVESYDEAGDSDEQPIFLTPCMRDLIKLAGVTLGQRRAQAR | soluble |
| AARRKIAKDLGKQVTQAMQTLSMQGGRFEAALTGGAPSAHGSEQVEFLVAGHAGSTPRPLAKVASGGELSRISLALSVIASRAARVPTLIFDEVDSGVGGAVAEAVGKLLRELGQRHQVLCVTHLPQVAACAHAQYRVSKVESGGSTRSRIAELDAEARVEEVARMLGGIKITATTRDHAREMLGGHTAPAA | not soluble |
| MGSDKIHHHHHHMSHTITVIGLGAGDLEQLPLGVYRLILNQDHLYVRTKDHPVIEELIGEGHSFTFFDSIYEQHETFEAVYDAIVAELLEAAKSKEILYAVPGHPLVAERTVQLLLEAEREGRVTVKILGGQSFLDPMFSALKIDPVEGCQVLDGTMLSRDEVHVTQHIVICQVYDQMIASHVKLTLMELLPDDYEVTVATAVGTKNEKLETVPLYELDRVTTISNLTAVYVPPVEDEVILYQDFRTLRQIIATLRGPDGCPWDKKQTHQSLKKYLLEEAYEVLEAIDEENEDHLVEELGDLLLQVLLHAQIGEDDGWFQIEDVIRSISEKMIRRHPHVFGERQVEDAEDVVETWDEIKKAEKGEDQASTSILGKIPKGLPSLMLAFELQKKAAKVGFDWAEVEPMWAKLDEEMHEFKEEIQAGHSQEMAKEFGDVLFVLVNIGRFYNIYAEEALHRTNEKFKRRFQSIEQAITAKGDTLEESSLEEMDVLWNQAKESESQGE | not soluble |
| MKIRSTALVKGFRQSTPYVNAHRGKTMVIMLGGEAVAHNNFGNIINDIALMHSLGIKVVVVYGARPQINQLLEKQDLTTPYHKNIRITDEAALSVVMQAAGQLQLAITARLSMSLNNTPMAGTQLNVVSGNFVIAQPLGVDDGVDYCHSGRIRRIDTDAINRTLDQGSIVLLGPIASSVTGECFNLLSEEVATQLAIKLGADKLIGFCSEQGVIDDNGNAVAELLPIEAEHVIKTLSENHASDSDYNTGTLRFLKGSIAACRAGVPRSHLISYKVDGALIQELFSFDGIGTQVVMASAEQVRQAGIDDIGGILELIHPLEEQGILVRRSREQLEQEIGKFTIIEKDGLIIGCAALYPYSEERKAEMACVAIHPDYRDGNRGLLLLNYMKHRSKSENINQIFVLTTHSLHWFREQGFYEVGVDYLPGAKQGLYNFQRKSKILALDL | not soluble |
| MAHHHHHHMGVCLASLMVRRSRISEVPDRYIEERRRYGPVAVACAPPEDDVSSAVYRAAGITDEEHRRICKEWYEGENIVHRLEEICAERSDRRALAYRTVQKVETEKKTDSKGHTRNWEVTYLNDPTYMTYNEFWSRLIAFGKGLRELGLAEGAAVAIAEDVRWEWLASVLAGWTQGLISVTVYANLGEAALLHALKEAECPALICNGNAVKKLVPLLHKAKLNNTMVIYLDALPAGVDAEGMMLLSWTDVLQKGLQSCFSYTIPSDCNRTALIMYTSGTVAEPKGVIHTFGSLKTGAAALEDRLTELLGPKEEGETYLAYLPLAHILEFITEMIMLNRGSLLCYGSPRTLSDMSARPRGDLAEFRPMMFVGVPRIFETIRKNVESQLPPVGSVKRSIFDAAYAARLRAIEDGKDTPF | soluble |
| MLSIIGQKTLTIMYWTLELASKLEDAPWPATKDELIDYAQRSGAPLEVIENLQEMEDEGEIYESIEDIWPDYPSKEDFFFNEEEY | not soluble |
| DLDLEMLAPYIPMDDDFQLR | soluble |
| MSGNIGANPAIIKLSWIEAAVDAHKTLNFEPSGRKRIGFDVADSGTDKCANVYRHGSVVFWADEWKAKEDELLKSCQRTYQAALEREADIVYDSIGVGASAGAKFSEINADRKSENAYARRVNYQRFNAGAGVHEPDDEYNGIPNKDFFANLKAQAWWLTVSEIRLTPLTTENSILWMS | not soluble |
| GPGSMKLRCFLLRYYPPGITLEYETSAGQVGQKTIGLLSLTPTTPLEPLVDKIIAEEPLLNGKYHDQIVTYLQRLVEKLIAGNNPNQTFTLFKSLRAHMLPLTNCAFNKNGTKFVTGSYDRTCKVWETATGNELVSLEGHRNVVYCVGFNNPYGNRVATGSFDKTCKIWDGESGQCLHTLTGHVTEIVCMSFNPQSTLIGTGSMDNTAKVWDVETGQELHTLMDHTAEIVALNFNTYGDLIVTGSFDHTAKLWDVRTGTVVHTLREHRGEISSVQFNYASNLVVTGSIDRTCKLWDVASGRCVSTLRGHTDEVLDVAFSVSGNMVASASADTTARVYNTATCHCIASLNDHEGEISKLEFNPQGTKIITASGDKRCNLWSVETGQVLQSLVGHTDEIFSCSFNYEGDTILTGSKDNTCRIWKS | not soluble |
